Data taken from the DeepSol protein solubility set.

Test: soluble on expression in E. coli; label from the status in PepcDB or PDB records

Sequence: MGHHHHHHSHMYAKEIFSYMKEREEQFILTDYMNRQIEITSDMRAILVDWLVEVQVSFEMTHETLYLAVKLVDLYLMKAVCKKDKLQLLGATAFMIAAKFEEHNSPRVDDFVYICDDNYQRSEVLSMEINILNVLKCDINIPIAYHFLRRYAR
- soluble on expression in E. coli: not soluble

Sequence: NTDELMRAVQPRVNPKLLYVIASTLRLYPLAKARLEIIRQTHITRGIDVHSIRGRWGLVLPLVVGLVDNAAQRARPLQRTGIGHSGPRTVLRPVPVMTHDVIIQVLAVCTTIAVCIWSIF
- soluble on expression in E. coli: not soluble

Sequence: MTGCSHRFYYSHMIQTSVRSFEVGEDLASMAVDERISLLRSRMQSISKSGDFSLDYNCKTADKNIIPLSDPLSHVLPWGGLPRG
- soluble on expression in E. coli: not soluble

Sequence: MGSDKIHHHHHHMWTQQMIHTKRGTFELFTKGNGEPLCITHHYSQFNETGDYFADVFTSTHRVLLINLRDAGNSAKANSEKELSMIETIHDLEAIREALQLPTWHFAGHSTGGMLGLLYAITYPKSLQSLVLVGAAASNYTETPFCIYHPEHPQFHYMQHLIENLKSPHLTNEERKELSTERTKLSLHKPENYNSYFCKPIQKTMSASRMNAFSHEYPAFNLREHLPSMKTKTLIICGRYDVQCPIQYSIEMHEGIRNSIFVTFEESNHYPFLEEAAQFTSTIRTFYKLLH
- soluble on expression in E. coli: not soluble

Sequence: MGSDKIHHHHHHMKKITKIEGNLANSFIKPKTRVVAYCRVSTDSNEQLVSLQAQKAHYETYIKANPEWEYAGLYYDEGISGTKKENRSDLLRMLSDCETGRIDLIITKSISRFARNTTDCLEMVRKLIDLGVHIYFEKENINTGSMESELMLSILSGLAESESISISENTKWAIQRRFQNGTFKISYPPYGYQNIDGQMIVNPKQAEVVKYIFAEVLSGKGTQKVANDLNQKGIPSKRRGRWTATTIRGILTNEKYTGDVILQKTYTDSHFNRHTNYGEKNMYLVENHHEAIISHEDFQAVDAILNQRAKEKSIEKRNSKYLNRYSFSSKIICSECGSTFKRRIHSSGRKYIAWCCSKHISNITECSMQFIRDDDIKTAFVTMMNKLIFGQKFILRPLLEGLRNQNNAASFHRIEELEIKIENNMEQSQVLTGLMAKGYLEPALYNKEKNSLVQERERLLAEKDQLTRFVNGNLAKVEEVNHLLRFATKSKMLTAYEDELFENYVEKIIVFSREEVGFELKCGITLKERLVN
- soluble on expression in E. coli: not soluble

Sequence: MSDVLITLSVELEDRPGQLLKVLQPISGMGGNIVGIVHQRGKKTPLNRLPVEISFKMDSEKVQKLIDELKSLGIIIRSFNEVRLTATTSVLLIGHLIHTDISDTISSIDVDGEAECVEMHVSMPEISGPSTAIITISASGKEKLKEAVEKLKEVCRKKEIILIEPVNEELV
- soluble on expression in E. coli: not soluble

Sequence: MGSDKIHHHHHHMQVPKVTLNNGVEMPILGYGVFQIPPEKTEECVYEAIKVGYRLIDTAASYMNEEGVGRAIKRAIDEGIVRREELFVTTKLWVSDVGYESTKKAFEKSLKKLQLEYIDLYLIHQPFGDVHCAWKAMEEMYKDGLVRAIGVSNFYPDRLMDLMVHHEIVPAVNQIEIHPFYQRQEEIEFMRNYNIQPEAWGPFAEGRKNIFQNGVLRSIAEKYGKTVAQVILRWLTQKGIVAIPKTVRRERMKENISIFDFELTQEDMEKIATLDEGQSAFFSHRDPEVVKWICSLKR
- soluble on expression in E. coli: soluble

Sequence: SGNTSSERSGGEKTHRRESRSGKDGTRPKILMDSAEDGDLFQSDDAKEFLAWRQDQESDSKTPLEERPTVFRWKGPGKEIYLSGSFNNWATKIPLNKSHNNFVAIIDLPEGEHQYKFYVDGHWTLDPKEPVVTNKSGVVNNVIKVRKTDFEVFDALKTDSEKCADMSDLSSSPPGPYHQDPYSTKSEDKLRSPPILPPHLLQVLLNKDTGISCDPTLLPEPNHVMLNHLYALSIKDGVMVLSATHRYKKKYVTTLLYKPI
- soluble on expression in E. coli: soluble

Sequence: MPVAEQPYHHGSLRRVLLARAESTLEKDGVDGLSLRQLAREAGVSHAAPSKHFRDRQALLDALAESGFLRLTAALERAVEEAESHARARFAALAGAYVSFALAHRELLALMYGNKHAPGAASQVVEAGHASMDLTVRIVTEAQAAGDIGPGDASRIALVAFATFHGIATLAAGGMLDGAPVDEVVTAASDTFWRGLAQA
- soluble on expression in E. coli: soluble

Sequence: MDCYVGATTGALKGAILKENTFQNLNEIKSLDPKSDEITSMIWNDEQQTEILIARVNRDLQLLGIEENELVSILTVTGGTGPIKGLHKADEKIVTCVESGELQIWNDKSEILSEWKTGPGVAVMRGSTEKPEIVTGGMKNLLKTWNLETGQQTWSAKNVPPDMLGLEIPIMITDARFIPGQNTILEATKLHEMRLYDPRAQRRPVKKIPFMENPIMCTSLTYKTNQILAANSIGEMGLFDLRSKVHPMCKFKGQAGSIRSITAHPTLPLAASVGIDRFLRVHDLQSRKLIHKIYCKTRLNRVLLRDNLSILNDKKPASKKEINEDETEYGNMTKDGYRSENEDDEDDDDVIEEDDVWGVMEPVKRAKKSSDDDVEEIQITSETIAVPSKNSQKLKRKNVLEADEIKEEEGDSDEAEVKKTTKKVLKKKKRV
- soluble on expression in E. coli: not soluble

Sequence: LPVTDNHIHVDDKHGYGAEKVAKTFYNAGGKVMIVLNKPTFDGNLTASMDILVRDVEIINKNTPVKAFGLVGVHPAELTYLMKFMSLEEAKQRIVDALNYAKKLVEEYDFIVGIGEVGRPHYPVSEDVWKASNEILKYCMELAKDIGCAIQIHAESSTEEQFKEFSEMAKEVGLNPEKVVKHHCGNMVLEGERYGIFPSILASRVNEDVVKKSLRFVMETDYIDDLKRPGVALGIKTVPRVTRRLIEKGVLDEEGVYKIHKENIERIYDM
- soluble on expression in E. coli: not soluble

Sequence: MGSDKIHHHHHHMSKAYSSNLTQDQWELLEPLIPVGKTGGRPRVVEMWQVINAIFYVLTQGCTWRNLPGDLPNWQTVYTYFRNWRKDGTWVSIHDQLRDWERVNNERAVSPTEAIIDSQSVKTAAMVTQQVGYDAGKKVKGRKRFLTVDTLGLVLPVLVSAASVDERSGGKLLLQKVKQMGDKVSRLNLIWVDGGYDGNPFMQWVMDFYRWVVQVVLRPRERKGFVLLPKRWVVERTFGWLTGCRRLNKDYELLPETAENFIYLAMIRIMVRRLA
- soluble on expression in E. coli: not soluble

Sequence: MGSDKIHHHHHHMSEEAFDAIIVGAGLAGCVAAYVLAKEGADVLVIERGNYAGSKNMTGGRLYAHSLERIIPGFAKEAPIERKVTKEKVTFLTDDTGVTLDYHNGRDQSPLQESYTLLRGEFDQWLMGKAEEVGAQFITGIRVDEILTQDGKVIGVKADGDELTAKAVILAEGVNPILGEQLGMVKPKVSADAMAVGAKELIELPESVIKDRFNLKDDEGAAWLFAGSPSNGLMGGGFIYTNRNSISLGIVCGLHGIGESDKSVPQMLEDFKNHSLIKPLIEGGKLLEYSGHVVPEAGLNMVPKLVDHGVLITGDAAGFCLNVGYTVRGMDLAIASGEAAAKAVLAARAQQDFSAQGLSSYQSLLEESFLMKDMKLYKQLPAFMETPRIFNQYPKMVADIMHEMFIIDGTPAQPLRKTLLKHCKEVGFMNLIKDGYKGVTSI
- soluble on expression in E. coli: not soluble

Sequence: MPISIQQISYIHPDKEVLFSDLNFAISKGQKLGLVGNNGCGKSTLLQIIAGQLAPSSGVIVRPDDLYYIPQHFGQYDSLTIAQALQIDHKQKALHAILAGDASIENFSILNDDWNIEERSVAALDSWGLGQFPLSYPMNLLSGGEKTRVFLAGMDIHNPSVILMDEPTNHLDSSGRQRLYDWVEKWRSTLLVVSHDRTLLNLLPEICELEKHQISYYGGNYEFYKEQKTLMQEALQQRIEEKEKALRTARKVARETAERRDKQNVRGEKRNLKKGVPRIVLNGLQSKSEKSTAKLTGAHQEKAEKLTDERNQLRSSLSPTAALKTDFNNSGLHTGKILVTAEEINFGYHPDQPQLWQAPLSFQLKSGDRLRIEGGNGSGKTTLLKIITGQLQPLKGTLIQANFTYVYLNQEYSIINDRNSILEQAYAFNGRNLPEHEIKIILNRYLFPASEWDKSCRKLSGGEKMRLAFCCLMISNNMPDMFILDEPTNNLDIQSIEIITATIKNYAGTVIAISHDNYFIQEIGVEQSIFLS
- soluble on expression in E. coli: not soluble

Sequence: MDIVLVGCKGFGKEHLRIYSKLGYDVSIVERDSNEAKRCSELFRVYKVYDNYEDALRSGSNIVDLVVPDGLHYEMGSLALKSKKHLLVEKPITPDIDSGISLIQQAEESKLKLMVAEQFYFDPSVNEAIRRINNGEIGKPHTVIVRHQSFRELKGWRNEKSMMGRGILIDEGTHYIDTLLNFGGRYRSLRSFVHRTWDFLGEDTAEAVFNFENGMHGLFFYSWNYPEYPLLPEFEIIGDAGSIYEDIGTKPTEPWDQRKRKTAYGDIIVNGKHIPVEPYDVIEREISGFLNAVEKDEPVPMPPDLALRDIITIDRIYKASSD
- soluble on expression in E. coli: not soluble

Sequence: PMVALVGARNASSLGLRMARKLAAALGEAGYVVVSGLARGIDAEAHAAALGQGTVAVQAGGVDVIYPAENAGLAAEIAARGCRISEQPMGLVPQARHFPLRNRIVSGLARAVVVVEAAARSGSLITAREALDQGREVLAVPGHPFDPRAAGGNQLIREGATLVRHAADVIEAIGTAHPA
- soluble on expression in E. coli: not soluble

Sequence: MGSDKIHHHHHHADNNKWKPLFGKNLENANYNPEVWSETDGVLGAVKDESIWTKDEYENFELDLDFKTDVGTNSGVVVYCTDTKDWIPNSVEIQIADDHCEKWGNGKPYEKCGAIYGHLGAVQDKVVKKPGEWNHMRIKCAGQHIMVILNGKKVTEMDMSKWTSGTKNPDGSDIPSWLPKPFAELPTKGFIGLQGKHGDSLIWFRNIKIRSL
- soluble on expression in E. coli: not soluble

Sequence: MGSSHHHHHHSSGLVPRGSHMNESIVISLGGSVISGDPIDADYMKSFARILEASKYRRVGIVTGGGRTARSYISVLRKLNVNENVLDEIGIYATRMNALSMASLIPGSNPTIPFTVEDAVNLMNTYRFVVMGGTEPGHTTDTVAALLCERSATRTLINVTSVDGVYDMDPHRFANAKRFDRIGYREAIALSTKSSAGAGPNVFMDITALTIAMRSRIRVIVTSRDIDNLEKILKGDRAVSTFIDDDQRS
- soluble on expression in E. coli: soluble

Sequence: MGQLFSSPQSEHQDLASSFTEYFKKFKTGNKIISQDIITLVELSLAKGNIQEANSAIRNALKEIDSTPLNVAVTGESGSGKSSFINTLRGIGHEEKGAAKTGVVEETMERHPYKHPNMPNVVFWDLPGIGTQTFPPKTYLEKMKFYEYDFFIIISATRFKKNDIDLAKAISMMKKEFYFVRTKVDSDLNNEEDFKPQNFDREKVLQNIRLNCVNTFKENGIAEPQIFLVSNKNVCHYDFPVLIDRLISDLPLYKRQNFMLSLPNITESAIEKKQQFLKQSIWLEGFAPDLLSIKPSLAFLNSDLETLEKSMKFYRSVFGVDEASLKSLATAWKIPVDQVEAMMKSPAVFKPTDEETIQERLSRYVLEICFANRYLFRKNLFLRNVFYLKYYFLDMVTEDAKTLLKEIYLRNKLPSN
- soluble on expression in E. coli: not soluble

Sequence: MGSSHHHHHHSSGLVPRGSHMVTGKAFPYVVVTGIAMTTALATDAETTWKLLLDRQSGIRTLDDPFVEEFDLPVRIGGHLLEEFDHQLTRIELRRMGYLQRMSTVLSRRLWENAGSPEVDTNRLMVSIGTGLGSAEELVFSYDDMRARGMKAVSPLTVQKYMPNGAAAAVGLERHAKAGVMTPVSACASGAEAIARAWQQIVLGEADAAICGGVETRIEAVPIAGFAQMRIVMSTNNDDPAGACRPFDRDRDGFVFGEGGALLLIETEEHAKARGANILARIMGASITSDGFHMVAPDPNGERAGHAITRAIQLAGLAPGDIDHVNAHATGTQVGDLAEGRAINNALGGNRPAVYAPKSALGHSVGAVGAVESILTVLALRDQVIPPTLNLVNLDPEIDLDVVAGEPRPGNYRYAINNSFGFGGHNVAIAFGRY
- soluble on expression in E. coli: soluble

Sequence: GSSGSSGGYFDAHALAMDYRSLGFRECLAEVARYLSIIEGLDASDPLRVRLVSHLNNYASQREASGPSSG
- soluble on expression in E. coli: soluble

Sequence: MGSDKIHHHHHHAQTPNTLTKKEKKAGWELLFNGKDFSGWRQCNGTAMPANWVIEDNAMKVFTGEGKKPGQGANGDILYQNKKFKNFELSVDWKASKMGNSGIFYYVREVPGKPIYYAAPEVQVLDNVDATDNKLANHLAGSLYDMLPADPKTVNPAGEWNTIVIRVKDGKVTHTQNGKKVVEYTLWSKEWDDLVANSKFKNFPGFTEGISKEGYIGLQDHGYPIWFRNIKIRELK
- soluble on expression in E. coli: not soluble
